Biological target: recombinant soluble human beta secretase expressed in CHO-K1 cells (Hu_Asp-2LΔTM(His)6), not treated with HIV protease (UniProt P56817)

Substance: HIV-1 protease
- cleavage of the F39-V40 bond (N-terminal sequence analysis): nearly 100% cleavage of the F^39-V^40 bond occurred
